Measurements reported in PMC11530643 (Communications Biology, 2024).
Ends that are not written are not given here. * marks the point of attachment. MTSL = spin label from S-(1-oxyl-2,2,5,5-tetramethyl-2,5-dihydro-1H-pyrrol-3-yl)methyl methanesulfonothioate, attached to the cysteine side chain, CC1(C)C=C(CS*)C(C)(C)N1[O]

Molecular target: FOXO4 forkhead domain (FHD; 95–195 a.a.) (human, UniProt P98177 95-195)
Experiment: NMR paramagnetic relaxation enhancement

Sequence of FOXO4 forkhead domain (FHD; 95–195 a.a.) (P98177 95-195): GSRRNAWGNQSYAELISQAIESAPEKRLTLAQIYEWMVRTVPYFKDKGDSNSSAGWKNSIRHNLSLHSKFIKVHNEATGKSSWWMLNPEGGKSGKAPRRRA

DLDLDMYMENLEC(MTSL)DMDNIISDLMDEGEGLDFNFEPDP (domain or fragment, human, UniProt P98177 469-505, looked up) [FOXO4 conserved region 3 (CR3; 469–505 a.a.), MTSL-labelled at C481]: binds.
